Test results from patent US20250115669A1, “FGFR1/KLB Targeting Agonistic Antigen-Binding Proteins and Conjugates Thereof with GLP-1R Agonistic Peptides” (SANOFI, priority 2020, published 2025).

T1: human beta-Klotho (Homo sapiens, UniProt Q86Z14)
T1 sequence (Q86Z14 1-1044): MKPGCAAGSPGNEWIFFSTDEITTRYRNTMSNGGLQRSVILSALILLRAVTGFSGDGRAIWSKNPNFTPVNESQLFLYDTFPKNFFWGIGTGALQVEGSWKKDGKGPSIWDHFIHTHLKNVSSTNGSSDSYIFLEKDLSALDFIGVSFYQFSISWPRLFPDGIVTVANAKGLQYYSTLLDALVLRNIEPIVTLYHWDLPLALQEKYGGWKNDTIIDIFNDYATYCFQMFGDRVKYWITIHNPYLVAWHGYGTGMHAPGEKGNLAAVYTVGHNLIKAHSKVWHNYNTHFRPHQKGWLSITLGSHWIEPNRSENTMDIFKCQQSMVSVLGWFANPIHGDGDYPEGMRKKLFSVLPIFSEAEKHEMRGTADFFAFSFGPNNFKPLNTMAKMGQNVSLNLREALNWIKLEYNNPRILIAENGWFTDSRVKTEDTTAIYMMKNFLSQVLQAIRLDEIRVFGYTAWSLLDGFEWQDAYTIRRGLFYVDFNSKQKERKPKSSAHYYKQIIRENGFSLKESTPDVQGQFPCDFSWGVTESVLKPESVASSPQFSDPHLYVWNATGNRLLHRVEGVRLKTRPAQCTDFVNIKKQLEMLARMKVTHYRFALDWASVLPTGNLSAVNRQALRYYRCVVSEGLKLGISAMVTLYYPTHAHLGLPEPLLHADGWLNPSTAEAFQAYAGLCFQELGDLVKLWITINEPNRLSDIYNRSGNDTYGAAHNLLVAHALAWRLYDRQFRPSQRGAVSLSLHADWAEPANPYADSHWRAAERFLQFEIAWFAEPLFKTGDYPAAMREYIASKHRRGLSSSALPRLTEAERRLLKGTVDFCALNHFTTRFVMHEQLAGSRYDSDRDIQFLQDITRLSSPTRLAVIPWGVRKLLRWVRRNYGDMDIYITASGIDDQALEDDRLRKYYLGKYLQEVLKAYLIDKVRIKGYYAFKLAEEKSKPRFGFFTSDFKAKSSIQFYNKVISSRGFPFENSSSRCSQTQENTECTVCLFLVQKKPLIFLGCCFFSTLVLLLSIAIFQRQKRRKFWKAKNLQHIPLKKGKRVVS

B1: Ab0362: IgG4 PE; 16H7 VL (N25S, D49T, D50E, D91A, N93S); 16H7 VH (M34V, I83T, D109E) (antibody)
VH: QVTLKESGPVLVKPTETLTLTCTVSGFSLNNARVGVSWIRQPPGKALEWLAHIFSNDEKSYSTSLKSRLTISKDTSKSQVVLTMTNMDPVDTATYYCARSVVTGGYYYEGMDVWGQGTTVTVSS
light: SYVLTQPPSVSVAPGQTARITCGGSNIGSESVHWYQQKPGQAPVLVVYTESDRPSGIPERFSGSNSGNTATLTISRVEAGDEADYYCQVWAGSSDHVVFGGGTKLTVLGQPKANPTVTLFPPSSEELQANKATLVCLISDFYPGAVTVAWKADGSPVKAGVETTKPSKQSNNKYAASSYLSLTPEQWKSHRSYSCQVTHEGSTVEKTVAPTECS
B2: Ab0311: IgG4 PE; 16H7 VL (D49Y, D50E, N93E); 16H7 VH (M34V, I83T, D109E) (antibody)
VH: QVTLKESGPVLVKPTETLTLTCTVSGFSLNNARVGVSWIRQPPGKALEWLAHIFSNDEKSYSTSLKSRLTISKDTSKSQVVLTMTNMDPVDTATYYCARSVVTGGYYYEGMDVWGQGTTVTVSS
light: SYVLTQPPSVSVAPGQTARITCGGNNIGSESVHWYQQKPGQAPVLVVYYESDRPSGIPERFSGSNSGNTATLTISRVEAGDEADYYCQVWDGESDHVVFGGGTKLTVLGQPKANPTVTLFPPSSEELQANKATLVCLISDFYPGAVTVAWKADGSPVKAGVETTKPSKQSNNKYAASSYLSLTPEQWKSHRSYSCQVTHEGSTVEKTVAPTECS
B3: Ab0363: IgG4 PE; 16H7 VL (N25A, D49S, D50A, D91A, N93A); 16H7 VH (M34V, I83T, D109E) (antibody)
VH: QVTLKESGPVLVKPTETLTLTCTVSGFSLNNARVGVSWIRQPPGKALEWLAHIFSNDEKSYSTSLKSRLTISKDTSKSQVVLTMTNMDPVDTATYYCARSVVTGGYYYEGMDVWGQGTTVTVSS
light: SYVLTQPPSVSVAPGQTARITCGGANIGSESVHWYQQKPGQAPVLVVYSASDRPSGIPERFSGSNSGNTATLTISRVEAGDEADYYCQVWAGASDHVVFGGGTKLTVLGQPKANPTVTLFPPSSEELQANKATLVCLISDFYPGAVTVAWKADGSPVKAGVETTKPSKQSNNKYAASSYLSLTPEQWKSHRSYSCQVTHEGSTVEKTVAPTECS
B4: Ab0308: IgG4 PE; 16H7 VL (N25S, D49Y, N93E); 16H7 VH (M34V, I83T, D109E) (antibody)
VH: QVTLKESGPVLVKPTETLTLTCTVSGFSLNNARVGVSWIRQPPGKALEWLAHIFSNDEKSYSTSLKSRLTISKDTSKSQVVLTMTNMDPVDTATYYCARSVVTGGYYYEGMDVWGQGTTVTVSS
light: SYVLTQPPSVSVAPGQTARITCGGSNIGSESVHWYQQKPGQAPVLVVYYDSDRPSGIPERFSGSNSGNTATLTISRVEAGDEADYYCQVWDGESDHVVFGGGTKLTVLGQPKANPTVTLFPPSSEELQANKATLVCLISDFYPGAVTVAWKADGSPVKAGVETTKPSKQSNNKYAASSYLSLTPEQWKSHRSYSCQVTHEGSTVEKTVAPTECS
B5: Ab0305: IgG4 PE; 16H7 VL (N25S, D49Y, D50E, D91T); 16H7 VH (M34V, I83T, D109E) (antibody)
VH: QVTLKESGPVLVKPTETLTLTCTVSGFSLNNARVGVSWIRQPPGKALEWLAHIFSNDEKSYSTSLKSRLTISKDTSKSQVVLTMTNMDPVDTATYYCARSVVTGGYYYEGMDVWGQGTTVTVSS
light: SYVLTQPPSVSVAPGQTARITCGGSNIGSESVHWYQQKPGQAPVLVVYYESDRPSGIPERFSGSNSGNTATLTISRVEAGDEADYYCQVWTGNSDHVVFGGGTKLTVLGQPKANPTVTLFPPSSEELQANKATLVCLISDFYPGAVTVAWKADGSPVKAGVETTKPSKQSNNKYAASSYLSLTPEQWKSHRSYSCQVTHEGSTVEKTVAPTECS
B6: Ab0364: IgG4 PE; 16H7 VL (N25A, D49E, D50E, D91E, N93S); 16H7 VH (M34V, I83T, D109E) (antibody)
VH: QVTLKESGPVLVKPTETLTLTCTVSGFSLNNARVGVSWIRQPPGKALEWLAHIFSNDEKSYSTSLKSRLTISKDTSKSQVVLTMTNMDPVDTATYYCARSVVTGGYYYEGMDVWGQGTTVTVSS
light: SYVLTQPPSVSVAPGQTARITCGGANIGSESVHWYQQKPGQAPVLVVYEESDRPSGIPERFSGSNSGNTATLTISRVEAGDEADYYCQVWEGSSDHVVFGGGTKLTVLGQPKANPTVTLFPPSSEELQANKATLVCLISDFYPGAVTVAWKADGSPVKAGVETTKPSKQSNNKYAASSYLSLTPEQWKSHRSYSCQVTHEGSTVEKTVAPTECS
B7: Ab0310: IgG4 PE; 16H7 VL (N25S, D50E, N93E); 16H7 VH (M34V, I83T, D109E) (antibody)
VH: QVTLKESGPVLVKPTETLTLTCTVSGFSLNNARVGVSWIRQPPGKALEWLAHIFSNDEKSYSTSLKSRLTISKDTSKSQVVLTMTNMDPVDTATYYCARSVVTGGYYYEGMDVWGQGTTVTVSS
light: SYVLTQPPSVSVAPGQTARITCGGSNIGSESVHWYQQKPGQAPVLVVYDESDRPSGIPERFSGSNSGNTATLTISRVEAGDEADYYCQVWDGESDHVVFGGGTKLTVLGQPKANPTVTLFPPSSEELQANKATLVCLISDFYPGAVTVAWKADGSPVKAGVETTKPSKQSNNKYAASSYLSLTPEQWKSHRSYSCQVTHEGSTVEKTVAPTECS
B8: Ab0303: IgG4 PE; 16H7 VL (N25S, D50E, D91T); 16H7 VH (M34V, I83T, D109E) (antibody)
VH: QVTLKESGPVLVKPTETLTLTCTVSGFSLNNARVGVSWIRQPPGKALEWLAHIFSNDEKSYSTSLKSRLTISKDTSKSQVVLTMTNMDPVDTATYYCARSVVTGGYYYEGMDVWGQGTTVTVSS
light: SYVLTQPPSVSVAPGQTARITCGGSNIGSESVHWYQQKPGQAPVLVVYDESDRPSGIPERFSGSNSGNTATLTISRVEAGDEADYYCQVWTGNSDHVVFGGGTKLTVLGQPKANPTVTLFPPSSEELQANKATLVCLISDFYPGAVTVAWKADGSPVKAGVETTKPSKQSNNKYAASSYLSLTPEQWKSHRSYSCQVTHEGSTVEKTVAPTECS
B9: Ab0365: IgG4 PE; 16H7 VL (N25A, D49T, D50E, D91A, N93S); 16H7 VH (M34V, I83T, D109E) (antibody)
VH: QVTLKESGPVLVKPTETLTLTCTVSGFSLNNARVGVSWIRQPPGKALEWLAHIFSNDEKSYSTSLKSRLTISKDTSKSQVVLTMTNMDPVDTATYYCARSVVTGGYYYEGMDVWGQGTTVTVSS
light: SYVLTQPPSVSVAPGQTARITCGGANIGSESVHWYQQKPGQAPVLVVYTESDRPSGIPERFSGSNSGNTATLTISRVEAGDEADYYCQVWAGSSDHVVFGGGTKLTVLGQPKANPTVTLFPPSSEELQANKATLVCLISDFYPGAVTVAWKADGSPVKAGVETTKPSKQSNNKYAASSYLSLTPEQWKSHRSYSCQVTHEGSTVEKTVAPTECS
B10: Ab0304: IgG4 PE; 16H7 VL (D49Y, D50E, D91T); 16H7 VH (M34V, I83T, D109E) (antibody)
VH: QVTLKESGPVLVKPTETLTLTCTVSGFSLNNARVGVSWIRQPPGKALEWLAHIFSNDEKSYSTSLKSRLTISKDTSKSQVVLTMTNMDPVDTATYYCARSVVTGGYYYEGMDVWGQGTTVTVSS
light: SYVLTQPPSVSVAPGQTARITCGGNNIGSESVHWYQQKPGQAPVLVVYYESDRPSGIPERFSGSNSGNTATLTISRVEAGDEADYYCQVWTGNSDHVVFGGGTKLTVLGQPKANPTVTLFPPSSEELQANKATLVCLISDFYPGAVTVAWKADGSPVKAGVETTKPSKQSNNKYAASSYLSLTPEQWKSHRSYSCQVTHEGSTVEKTVAPTECS
B11: Ab0301: IgG4 PE; 16H7 VL (N25S, D49Y, D91T); 16H7 VH (M34V, I83T, D109E) (antibody)
VH: QVTLKESGPVLVKPTETLTLTCTVSGFSLNNARVGVSWIRQPPGKALEWLAHIFSNDEKSYSTSLKSRLTISKDTSKSQVVLTMTNMDPVDTATYYCARSVVTGGYYYEGMDVWGQGTTVTVSS
light: SYVLTQPPSVSVAPGQTARITCGGSNIGSESVHWYQQKPGQAPVLVVYYDSDRPSGIPERFSGSNSGNTATLTISRVEAGDEADYYCQVWTGNSDHVVFGGGTKLTVLGQPKANPTVTLFPPSSEELQANKATLVCLISDFYPGAVTVAWKADGSPVKAGVETTKPSKQSNNKYAASSYLSLTPEQWKSHRSYSCQVTHEGSTVEKTVAPTECS

These molecules were tested against T1, human beta-Klotho (assay: SPR off-rate screening of antibody mutants (human beta-Klotho captured by anti-His antibody)). Conditions: mean, n=3.
Format: binding
Outline: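 Off-rate (kd) from single exponential fit of dissociation after mutant antibodies (50 nmol/L analyte) bound beta-Klotho held on an anti-His capture surface. Association ran 240 s, dissociation 300 s, with surface regeneration between cycles.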
With B1 the “koff human KLB” value was “invalid fit”. With B2 the “koff human KLB” value was 0.0013 s⁻¹. In the case of B3, the “koff human KLB” value is reported as “invalid fit”. With B4 the “koff human KLB” value was 0.0013 s⁻¹. With B5 the “koff human KLB” value was “invalid fit”. With B6 the “koff human KLB” value was 0.00169 s⁻¹. In the case of B7, the “koff human KLB” value is reported as 0.00116 s⁻¹. B8 was tested, and the “koff human KLB” value was “invalid fit”. B9 was tested, and the “koff human KLB” value was “invalid fit”. With B10 the “koff human KLB” value was “invalid fit”. In the case of B11, the “koff human KLB” value is reported as “invalid fit”.
